Test results as given in patent US20250197501A1.

Key:
[1] = molecular target: human B7-H3 on the surface of human cancer cells (human) (UniProt Q5ZPR3); experiment: flow cytometry, NCI-H520 cells
[2] = molecular target: human B7-H3 on the surface of human cancer cells (human) (UniProt Q5ZPR3); experiment: flow cytometry, CAL 27 cells
[3] = molecular target: human B7-H3 on the surface of human cancer cells (human) (UniProt Q5ZPR3); experiment: flow cytometry, DU145 cells
[4] = molecular target: human B7-H3 on the surface of human cancer cells (human) (UniProt Q5ZPR3); experiment: flow cytometry, Detroit 562 cells
[5] = molecular target: human B7-H3 on the surface of human cancer cells (human) (UniProt Q5ZPR3); experiment: flow cytometry, HA59T cells
[6] = molecular target: human B7-H3 on the surface of human cancer cells (human) (UniProt Q5ZPR3); experiment: flow cytometry, LNCaP cells
[7] = molecular target: human B7-H3 on the surface of human cancer cells (human) (UniProt Q5ZPR3); experiment: flow cytometry, PC-3 cells
[8] = molecular target: human B7-H3 on the surface of human cancer cells (human) (UniProt Q5ZPR3); experiment: flow cytometry, A549 cells
[9] = molecular target: human B7-H3 on the surface of human cancer cells (human) (UniProt Q5ZPR3); experiment: flow cytometry, Huh7 cells
[10] = molecular target: human B7-H3 on the surface of human cancer cells (human) (UniProt Q5ZPR3); experiment: flow cytometry, HepG2 cells
[11] = molecular target: human B7-H3 on the surface of human cancer cells (human) (UniProt Q5ZPR3); experiment: flow cytometry, H1299 cells
[12] = molecular target: human B7-H3 on the surface of human cancer cells (human) (UniProt Q5ZPR3); experiment: flow cytometry, OECM-1 cells

Measured: MFI value

Chain of human B7-H3 on the surface of human cancer cells (human) (Q5ZPR3 29-534 limits assumed): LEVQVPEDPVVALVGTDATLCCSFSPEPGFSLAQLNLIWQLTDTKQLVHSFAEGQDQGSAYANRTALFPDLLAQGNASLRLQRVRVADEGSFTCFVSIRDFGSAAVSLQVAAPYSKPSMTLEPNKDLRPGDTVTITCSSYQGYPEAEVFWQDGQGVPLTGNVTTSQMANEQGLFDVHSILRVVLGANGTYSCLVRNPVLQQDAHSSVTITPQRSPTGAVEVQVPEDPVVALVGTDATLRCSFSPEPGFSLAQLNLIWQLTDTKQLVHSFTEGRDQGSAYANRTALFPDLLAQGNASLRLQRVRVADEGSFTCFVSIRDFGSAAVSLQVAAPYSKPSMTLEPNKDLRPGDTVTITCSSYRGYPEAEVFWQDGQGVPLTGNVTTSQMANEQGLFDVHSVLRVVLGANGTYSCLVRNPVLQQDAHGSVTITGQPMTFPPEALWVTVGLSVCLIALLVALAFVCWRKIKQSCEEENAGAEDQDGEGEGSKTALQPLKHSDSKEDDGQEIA

IgG (isotype control antibody)
< 600 MFI: [1] | [2] | [3] | [4] | [5] | [6] | [7] | [8] | [9] | [10] | [11] | [12]
